Source: US20030143656A1

Columns and labels:
[1] = target: GST-PDK1 I119A (human), O15530; assay: cell-based or functional assay
[2] = target: 412E-p70 S6K-T2 (His-tagged, insect cells) (human) (UniProt P23443); assay: SPR, His-PDK1 injected over 412E-p70 S6K-T2 amine-coupled to a CM5 chip, steady state
412E-p70 S6K-T2 (His-tagged, insect cells) (human), sequence (P23443 other isoform, or with tags, fused parts or gaps): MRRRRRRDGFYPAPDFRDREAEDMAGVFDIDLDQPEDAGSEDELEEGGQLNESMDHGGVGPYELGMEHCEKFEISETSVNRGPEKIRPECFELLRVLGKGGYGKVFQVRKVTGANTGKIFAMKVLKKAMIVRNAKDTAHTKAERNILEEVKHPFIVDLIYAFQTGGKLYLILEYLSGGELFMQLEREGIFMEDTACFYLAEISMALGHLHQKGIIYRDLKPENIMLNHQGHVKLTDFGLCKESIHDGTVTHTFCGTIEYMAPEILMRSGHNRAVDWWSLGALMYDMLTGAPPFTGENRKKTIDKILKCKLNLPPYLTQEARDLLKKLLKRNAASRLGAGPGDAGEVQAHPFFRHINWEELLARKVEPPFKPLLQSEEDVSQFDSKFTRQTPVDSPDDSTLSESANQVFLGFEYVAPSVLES

Row | inhibition by 2 µM PIFtide of the activation of S6K1-T2[T412E] and SGK1[T422D] by the PDK1 mutant [1] [%] | inhibition by 35 µM PIFtide of the activation of S6K1-T2[T412E] and SGK1[T422D] by the PDK1 mutant [1] [%] | stimulation of the PDK1 mutant towards T308tide by PIF [1] [fold] | Kd [2] [µM] | Binder
1 | 50 | > 95 | 2 |  | REPRILSEEEQEMFRDFDYIADWC [PIFtide]
2 |  |  |  | 8 | His-PDK1 (enzyme, human, UniProt O15530 52-556, looked up, not shown: small tags and cut ends) DGTAAEPRPGAGSLQHAQPPPQPRKKRPEDFKFGKILGEGSFSTVVLARELATSREYAIKILEKRHIIKENKVPYVTRERDVMSRLDHPFFVKLYFTFQDDEKLYFGLSYAKNGELLKYIRKIGSFDETCTRFYTAEIVSALEYLHGKGIIHRDLKPENILLNEDMHIQITDFGTAKVLSPESKQARANSFVGTAQYVSPELLTEKSACKSSDLWALGCIIYQLVAGLPPFRAGNEYLIFQKIIKLEYDFPEKFFPKARDLVEKLLVLDATKRLGCEEMEGYGPLKAHPFFESVTWENLHQQTPPKLTAYLPAMSEDDEDCYGNYDNLLSQFGCMQVSSSSSSHSLSASDTGLPQRSGSNIEQYIHDLDSNSFELDLQFSEDEKRLLLEKQAGGNPWHQFVENNLILKMGPVDKRKGLFARRRQLLLTEGPHLYYVDPVNKVLKGEIPWSQELRPEAKNFKTFFVHTPNRTYYLMDPSGNAHKWCRKIQEVWRQRYQSHPDAAVQ
